Test results as given in the supplement of paper PMC10724198.
± gives the standard deviation of the averaged measurements.

Test system: Saccharomyces cerevisiae
Assay: protein stability index of tFT-peptide fusion (C-terminal peptide) (PSI (0-1 scale)); higher = more stable (slower turnover)
Conditions: genetic background: wild type; temperature: 30 C
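Also: PSI is a weighted mean of sequencing reads over stability bins, variants kept only with over 10 reads, mCherry proximal and sfGFP distal, peptide attached via GGGS linker.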

QGSKQKIISAAT
protein stability index: 0.6807 ± 0.0064

QIERSRIAYLST
protein stability index: 0.6933 ± 0.0027

QIQRSGGGGHCG
protein stability index: 0.739 ± 0.0028

QITSHRVISRLV
protein stability index: 0.546 ± 0.037

QKIREKKKRKKL
protein stability index: 0.622 ± 0.015

QKKIIRKRKKNR
protein stability index: 0.666 ± 0.012

QKKKKKKVQKKQ
protein stability index: 0.6702 ± 0.0054

QKKKKLAYVGKR
protein stability index: 0.659 ± 0.012

QKKKKNKKQKTE
protein stability index: 0.599 ± 0.021

QKNETNQWKGKK
protein stability index: 0.672 ± 0.032

QKQINQKKRTMK
protein stability index: 0.649 ± 0.055

QKREEPQNKSQD
protein stability index: 0.72 ± 0.017

QKSCHIADGREL
protein stability index: 0.671 ± 0.022

QLEGQGISFRVL
protein stability index: 0.785 ± 0.065

QLENQRGWDRKI
protein stability index: 0.656 ± 0.038

QLHGWMTRNPLL
protein stability index: 0.746 ± 0.051

QLRPPHRTLHLP
protein stability index: 0.698 ± 0.028

QLSTSGLTTTAW
protein stability index: 0.707 ± 0.029

QLYGHNRRNQGL
protein stability index: 0.611 ± 0.046

QMSHTGPTTIQS
protein stability index: 0.695 ± 0.023

QNERRLPVGSYA
protein stability index: 0.696 ± 0.06

QNGAEESVSVGT
protein stability index: 0.662 ± 0.042

QNIGPKEESVLA
protein stability index: 0.682 ± 0.035

QNLYLSFLRIKL
protein stability index: 0.624 ± 0.0088

QNQILNKKVIFK
protein stability index: 0.681 ± 0.056

QPGDVWEFGVLL
protein stability index: 0.73 ± 0.027

QPGTPLSPPPSP
protein stability index: 0.49 ± 0.019

QPKEGGRPKKKE
protein stability index: 0.675 ± 0.035

QPRLPLPLSSPV
protein stability index: 0.611 ± 0.071

QPTRADLEAPPR
protein stability index: 0.6858 ± 0.0065

QQDHRSHAHRRL
protein stability index: 0.7047 ± 0.0013

QQPPSSGTPDNH
protein stability index: 0.703 ± 0.027

QRNPQNKDRVQD
protein stability index: 0.663 ± 0.004

QRRGAPTPPACL
protein stability index: 0.748 ± 0.011

QRVWGFRSVFVR
protein stability index: 0.532 ± 0.035

QRWKEGRGHSRQ
protein stability index: 0.686 ± 0.017

QSGLAGIPIPKN
protein stability index: 0.681 ± 0.078

QSKFNKFPIVET
protein stability index: 0.656 ± 0.046

QSPMTTGASERH
protein stability index: 0.623 ± 0.066

QSPSALAEGPDD
protein stability index: 0.641 ± 0.099

QSRAQTFGTSIS
protein stability index: 0.668 ± 0.013

QSYRGIGFRTTM
protein stability index: 0.607 ± 0.049

QTGPPDPPLSPP
protein stability index: 0.643 ± 0.014

QTHFRPDYALDW
protein stability index: 0.753 ± 0.064

QTTKEQQKKSYK
protein stability index: 0.665 ± 0.053

QVILQHSLGLLD
protein stability index: 0.707 ± 0.014

QYGARNHPPTTK
protein stability index: 0.742 ± 0.063

QYKRFYGSLVNG
protein stability index: 0.608 ± 0.047

QYLKTKKEGKEF
protein stability index: 0.698 ± 0.024

RAAFNPCYTIDF
protein stability index: 0.729 ± 0.025

RAARGGRSGTRV
protein stability index: 0.643 ± 0.097

RAARVSVVAYPF
protein stability index: 0.682 ± 0.0094

RAAVTDPCNPLL
protein stability index: 0.693 ± 0.0094

RACDQPSGVCNV
protein stability index: 0.669 ± 0.038

RACGVSMRIKGG
protein stability index: 0.695 ± 0.033

RACLDRNNLDLG
protein stability index: 0.605 ± 0.075

RADQGGVVNGEG
protein stability index: 0.732 ± 0.055

RAIGREGILHRA
protein stability index: 0.693 ± 0.094

RAKRMVGQTIQE
protein stability index: 0.765 ± 0.18

RALCGWFAKRMI
protein stability index: 0.637 ± 0.035

RALCISCYVALR
protein stability index: 0.5849 ± 0.00077

RAPSTPSGRPSL
protein stability index: 0.65 ± 0.051

RARAIGVGSGRG
protein stability index: 0.698 ± 0.023

RARCPGGQIKLH
protein stability index: 0.714 ± 0.2

RARQYTTAMIQS
protein stability index: 0.469 ± 0.088

RARSFINSFSQS
protein stability index: 0.671 ± 0.018

RASRSPIARPGT
protein stability index: 0.643 ± 0.018

RAVFLCVWDYSG
protein stability index: 0.597 ± 0.13

RAVVTGEGESGG
protein stability index: 0.624 ± 0.0092

RCCGRSRLVVPW
protein stability index: 0.6986 ± 0.0023

RCEGRRIEQSGK
protein stability index: 0.7037 ± 0.0049

RCEWRGSCWGGE
protein stability index: 0.653 ± 0.062

RCGCLRVPTGGG
protein stability index: 0.679 ± 0.075

RCGGEWTGGVWR
protein stability index: 0.845 ± 0.22

RCGGGKWGRGAE
protein stability index: 0.69683 ± 0.00067

RCGPPTAPSLDP
protein stability index: 0.619 ± 0.008

RCPLSFLRCSMA
protein stability index: 0.586 ± 0.018

RCPPLWNPLSPL
protein stability index: 0.697 ± 0.034

RCPPPQPPVRKV
protein stability index: 0.642 ± 0.1

RCPRSPPQPLWT
protein stability index: 0.731 ± 0.03

RCSCNKNGFSSN
protein stability index: 0.607 ± 0.2

RCSLLVVPHSPP
protein stability index: 0.717 ± 0.04

RCYSFTKIRNNL
protein stability index: 0.718 ± 0.13

RDAVLSCARRSQ
protein stability index: 0.752 ± 0.17

RDCSGGRRGLER
protein stability index: 0.601 ± 0.023

RDDDSKDKRTEI
protein stability index: 0.684 ± 0.065

RDLLPRWTWIIW
protein stability index: 0.76 ± 0.11

RDPDTWKLFSLT
protein stability index: 0.687 ± 0.043

RDPPLPRRLPSL
protein stability index: 0.706 ± 0.058

RDRMSEGLGDRS
protein stability index: 0.684 ± 0.059

RDSLEKCLFEVQ
protein stability index: 0.703 ± 0.05

RDSQSGVVVKGT
protein stability index: 0.726 ± 0.024

RDTHSEPKPAQY
protein stability index: 0.721 ± 0.0088

RDVRNRARVKRE
protein stability index: 0.693 ± 0.012

REEFHGLKGRGG
protein stability index: 0.671 ± 0.046

REEGGWGEAWRE
protein stability index: 0.726 ± 0.049

REGALVYWGFLG
protein stability index: 0.652 ± 0.018

REKQRYEERLRE
protein stability index: 0.636 ± 0.018

RERTNKKLAKDK
protein stability index: 0.656 ± 0.045

RESGASLWATMR
protein stability index: 0.734 ± 0.015

RESRGAGGGEGG
protein stability index: 0.667 ± 0.033

RESVSPCLVGAV
protein stability index: 0.616 ± 0.056

REWRLVTCSDCL
protein stability index: 0.668 ± 0.023

RFAGLRDVGCFL
protein stability index: 0.695 ± 0.034

RFGRGAVWGLGG
protein stability index: 0.6554 ± 0.0051

RFINRVVAGDRR
protein stability index: 0.681 ± 0.032

RFLLSITSSLVL
protein stability index: 0.666 ± 0.043

RFLVRSFIGWRG
protein stability index: 0.669 ± 0.031

RFPFGPAPPPTP
protein stability index: 0.744 ± 0.042

RFSMVVVERYSC
protein stability index: 0.577 ± 0.0062

RFSVRGARHRCG
protein stability index: 0.693 ± 0.0079

RFTIPFSVQRVD
protein stability index: 0.721 ± 0.094

RFYFSLSWSGFC
protein stability index: 0.66 ± 0.077

RFYLLAEDGSST
protein stability index: 0.703 ± 0.017

RFYSKDLVHLST
protein stability index: 0.6656 ± 0.0031

RGALGVVWSGLD
protein stability index: 0.637 ± 0.023

RGARGGRLVCRE
protein stability index: 0.689 ± 0.043

RGARGGSRGGGG
protein stability index: 0.677 ± 0.086

RGARPRTPPSPP
protein stability index: 0.713 ± 0.03

RGCGGGRVAREC
protein stability index: 0.689 ± 0.051

RGCGKGPLLSWF
protein stability index: 0.717 ± 0.0093

RGCRLRCSLPGR
protein stability index: 0.669 ± 0.056

RGCSAVEKARPC
protein stability index: 0.622 ± 0.0067

RGGCLPTCPQET
protein stability index: 0.652 ± 0.026

RGGGEGGKEDSQ
protein stability index: 0.682 ± 0.047

RGGGGGGDCVGA
protein stability index: 0.727 ± 0.018

RGGGRDGQTRGV
protein stability index: 0.6165 ± 0.0045

RGGGVRYGVARR
protein stability index: 0.68 ± 0.059

RGGRLQVGMEAV
protein stability index: 0.6653 ± 0.0022

RGGRMGFYLVCI
protein stability index: 0.636 ± 0.028

RGGSVDCRGNPL
protein stability index: 0.656 ± 0.013

RGGVFGTCGVGG
protein stability index: 0.653 ± 0.035

RGGWYLQKAITP
protein stability index: 0.716 ± 0.047

RGHPRRRPERKA
protein stability index: 0.707 ± 0.09

RGHTTYCGPALI
protein stability index: 0.697 ± 0.08

RGIGIQSVAARN
protein stability index: 0.723 ± 0.094

RGIRDQRKSKDK
protein stability index: 0.663 ± 0.029

RGIYSIGASGRS
protein stability index: 0.695 ± 0.033

RGLGCEVGTVEV
protein stability index: 0.768 ± 0.0077

RGLPVLTFPHTP
protein stability index: 0.71 ± 0.0095

RGLRVWWGLVGV
protein stability index: 0.633 ± 0.044

RGPRSSGRKGIR
protein stability index: 0.676 ± 0.042

RGQDGSEGRGPA
protein stability index: 0.653 ± 0.02

RGQSGSLSKLLG
protein stability index: 0.72 ± 0.026

RGRAVGGARKFG
protein stability index: 0.739 ± 0.029

RGRFVVGAGRED
protein stability index: 0.67 ± 0.077
